Measured values from paper PMC10652096 (The Journal of Biological Chemistry, 2023).

Columns and labels:
[1] = target: human Hyper-IL-6 (HIL-6) (human); experiment: cell-based or functional assay
[2] = target: Hyper IL-12 (HIL-12) (human); experiment: cell-based or functional assay
[3] = target: T1, human Hyper-IL-6 (HIL-6) (human); experiment: SPR; Fc fusion captured on a Protein A sensor chip, cytokine injected (HIL-6, HIL-12 50 to 0.1 nM, 30 μl/min, 120 s association, 300 s dissociation); 25 °C, PBS pH 7.4, 0.05% surfactant P20; 1:1 binding model; Biacore X100; settings: both partners purified
T1 construct: soluble IL-6 receptor (sIL-6R), human; flexible peptide linker; Interleukin 6 (IL-6), human; also called hHIL-6; source: recombinant, produced and purified as described (27)

[4] = target: T2, Hyper IL-12 (HIL-12) (human); experiment: as above; settings: both partners purified
T2 construct: IL-12/IL-23 subunit p40, human; flexible linker; IL-12 subunit p35, human; also called hHIL-12; FLAG-tagged HIL-12

B1: cs130-IL-12/23^VHHFc (Fc fusion)
chain: ELLDPCGYISPESPVVQLHSNFTAVCVLKEKCMDYFHVNANYIVWKTNHFTIPKEQYTIINRTASSVTFTDIASLNIQLTCNILTFGQLEQNVYGITIISGLPPEKPKNLSCIVNEGKKMRCEWDGGRETHLETNFTLKSEWATHKFADCKAKRDTPTSCTVDYSTVYFVNIEVWVEAENALGKVTSDHINFDPVYKVKPNPPHNLSVINSEELSSILKLTWTNPSIKSVIILKYNIQYRTKDASTWSQIPPEDTASTRSSFTVQDLKPFTEYVFRIRCMKEDGKGYWSDWSEEASGITYEDDVQFVESGGGSVHAGGSLRLNCATSGYIYSTYCMGWFRQAPGKEREGVAHIYTNSGRTYYADSVKGRFTISQDNAKNTVYLQMNSLKPEDTAIYYCAARPSIRCASFSATEYKDWGQGTQVTVSSRENLYFQMKYLLPTAAAGLLLLAAQPAMAEVQLVESGGGLVQAGGSLRLSCAASGRTFSWSAVGWFRQAPGKEREFVAAIRWSGGSPYYADSVKDRFTISRDNAKNTVYLQMNSLRPEDTAVYLCGETSLFPTSRGSHYDTWGQGTQVTVSSGSGWSHPQFEK
IC50 of inhibition of proliferation of Ba/F3-gp130 cells stimulated with 150 ng/ml IL-6 and 300 ng/ml sIL-6R (IL-6 trans-signaling via gp130; separate IL-6 and sIL-6R, not the fused HIL-6) [1]: 0.56 nM | IC50 of inhibition of proliferation of Ba/F3-hIL-12Rβ1-hIL-12Rβ2 cells induced by 10 ng/ml HIL-12, 72 h, CellTiter-Blue [2]: 7.81 nM | Kd [3]: 0.0289 nM | koff [3]: 7.02e-05 s⁻¹ | kon [3]: 2.43e+06 M⁻¹ s⁻¹ | Kd [4]: 0.23 nM | koff [4]: 0.000163 s⁻¹ | kon [4]: 710000 M⁻¹ s⁻¹

B2: cs130-TNF^VHHFc (Fc fusion)
chain: ELLDPCGYISPESPVVQLHSNFTAVCVLKEKCMDYFHVNANYIVWKTNHFTIPKEQYTIINRTASSVTFTDIASLNIQLTCNILTFGQLEQNVYGITIISGLPPEKPKNLSCIVNEGKKMRCEWDGGRETHLETNFTLKSEWATHKFADCKAKRDTPTSCTVDYSTVYFVNIEVWVEAENALGKVTSDHINFDPVYKVKPNPPHNLSVINSEELSSILKLTWTNPSIKSVIILKYNIQYRTKDASTWSQIPPEDTASTRSSFTVQDLKPFTEYVFRIRCMKEDGKGYWSDWSEEASGITYEDDVQFVESGGGSVHAGGSLRLNCATSGYIYSTYCMGWFRQAPGKEREGVAHIYTNSGRTYYADSVKGRFTISQDNAKNTVYLQMNSLKPEDTAIYYCAARPSIRCASFSATEYKDWGQGTQVTVSSGGGGSGGGGSGGGGTG
IC50 of inhibition of proliferation of Ba/F3-gp130 cells stimulated with 150 ng/ml IL-6 and 300 ng/ml sIL-6R (IL-6 trans-signaling via gp130; separate IL-6 and sIL-6R, not the fused HIL-6) [1]: 0.51 nM | Kd [3]: 0.0488 nM | koff [3]: 8.55e-05 s⁻¹ | kon [3]: 1.75e+06 M⁻¹ s⁻¹
